Our source for the self-aminoacylation values is the supplement of paper PMC9233669.

This sample holds only a part of the variants without activity.

Series [1] relates to biotinyl-Phe-oxazolone. Briefly: self-aminoacylation, catalytic enhancement (BFO) (fold over background); higher = more active; k-Seq, kA / k0A0; sequences stand for … in GGGAAUGGAUCCACAUCUACGAAUUC…UUCACUGCAGACUUGACGAAGCUG
A digest of the protocol: (§1)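 Mutagenized RNA pools with a 21-nt variable region (0.43 μM) reacted with each biotinyl-aminoacyl-oxazolone at 2–1250 μM. Reactions ran in 50 μL HEPES/NaCl/KCl/MgCl2/CaCl2 buffer with 5% acetonitrile, pH 6.9–7.0, for 90 minutes at room temperature. Streptavidin-captured RNA was quantified by triplicate qPCR and Illumina sequencing, and per-sequence fraction reacted was fit to a pseudo-first-order model with 1000 bootstraps. Catalytic enhancement is median kA divided by the uncatalyzed rate, the low-activity peak of a bimodal Gaussian fit.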

The subject of series [2] is biotinyl-Ile-oxazolone. Briefly: self-aminoacylation, catalytic enhancement (BIO) (fold over background); higher = more active; k-Seq, kA / k0A0; sequences stand for … in GGGAAUGGAUCCACAUCUACGAAUUC…UUCACUGCAGACUUGACGAAGCUG
A digest of the protocol:
as §1

Series [3] relates to biotinyl-Met-oxazolone. Briefly: self-aminoacylation, catalytic enhancement (BMO) (fold over background); higher = more active; k-Seq, kA / k0A0; sequences stand for … in GGGAAUGGAUCCACAUCUACGAAUUC…UUCACUGCAGACUUGACGAAGCUG
The essentials: as §1

Series [4] relates to biotinyl-Val-oxazolone. The series can be described thus: self-aminoacylation, catalytic enhancement (BVO) (fold over background); higher = more active; k-Seq, kA / k0A0; sequences stand for … in GGGAAUGGAUCCACAUCUACGAAUUC…UUCACUGCAGACUUGACGAAGCUG
The essentials: as §1

Series [5] concerns biotinyl-Leu-oxazolone. The series can be described thus: self-aminoacylation, catalytic enhancement (BLO) (fold over background); higher = more active; k-Seq, kA / k0A0; sequences stand for … in GGGAAUGGAUCCACAUCUACGAAUUC…UUCACUGCAGACUUGACGAAGCUG
The essentials:
as §1

Series [6] deals with biotinyl-Trp-oxazolone. The series can be described thus: self-aminoacylation, catalytic enhancement (BWO) (fold over background); higher = more active; k-Seq, kA / k0A0; sequences stand for … in GGGAAUGGAUCCACAUCUACGAAUUC…UUCACUGCAGACUUGACGAAGCUG
The essentials: as §1

As to “AAGUUUGCUAAUAGUGGGAAG [Fam3.1 aminoacylation ribozyme variant]”, the self-aminoacylation was found to be 1.48 in series [1]; 0.841 in series [2]; 0.971 in series [3]; 1.03 in series [4]; 0.876 in series [5]; 0.598 in series [6].

For “AAGUUUGCUAAUAGUUGCAAU [Fam3.1 aminoacylation ribozyme variant]”, the self-aminoacylation was 1.25 in series [1]; 1.26 in series [2]; 1.15 in series [3]; 1.31 in series [4]; 0.88 in series [5]; 1.29 in series [6].

For “AAGUUUGCUAAUAGUUGCACG [Fam3.1 aminoacylation ribozyme variant]”, the self-aminoacylation turned out to be 1.38 in series [1]; 1.11 in series [2]; 1.31 in series [3]; 1.14 in series [4]; 1.1 in series [5]; 1.75 in series [6].

In the case of “AAGUUUGCUAAUAGUUGCAUG [Fam3.1 aminoacylation ribozyme variant]”, the self-aminoacylation in series [1] was found to be 1.14; in series [2], 0.96; in series [3], 0.831; in series [4], 0.934; in series [5], 1.14; in series [6], 0.685.

“AAGUUUGCUAAUAGUUGUAAG [Fam3.1 aminoacylation ribozyme variant]”: the self-aminoacylation in series [1] is 2.23; in series [2], 1.29; in series [3], 1.48; in series [4], 1.28; in series [5], 1.12; in series [6] it was 1.55.

Turning to “AAGUUUGCUAAUAUCCGCAAG [Fam3.1 aminoacylation ribozyme variant]”, the self-aminoacylation is 1.18 in series [1]; 0.911 in series [2]; 0.725 in series [3]; 0.886 in series [4]; 0.845 in series [5]; 0.739 in series [6].

For the sequence “AAGUUUGCUAAUCGACGCAAG [Fam3.1 aminoacylation ribozyme variant]”, the self-aminoacylation amounted to 0.783 in series [1]; 0.534 in series [2]; 0.581 in series [3]; 0.547 in series [4]; 0.477 in series [5]; 0.72 in series [6].

On to “AAGUUUGCUAAUCGUCACAAG [Fam3.1 aminoacylation ribozyme variant]”, for which the self-aminoacylation in series [1] turned out to be 1.3; in series [2] it was 0.966; in series [3], 0.828; in series [4], 0.978; in series [5] it was 0.881; in series [6], 0.982.

With “AAGUUUGCUAAUCGUCGCACG [Fam3.1 aminoacylation ribozyme variant]”, the self-aminoacylation in series [1] stood at 0.692; in series [2], 0.983; in series [3], 0.842; in series [4], 0.873; in series [5], 1.16; in series [6], 0.937.

In the case of “AAGUUUGCUAAUCGUCGCAUG [Fam3.1 aminoacylation ribozyme variant]”, the self-aminoacylation is 0.667 in series [1]; 1.03 in series [2]; 0.922 in series [3]; 0.923 in series [4]; 0.957 in series [5]; 0.804 in series [6].

Turning to “AAGUUUGCUAAUCGUGGCAAG [Fam3.1 aminoacylation ribozyme variant]”, the self-aminoacylation in series [1] amounted to 0.796; in series [2], 0.713; in series [3] it was 0.604; in series [4], 0.813; in series [5] it was 0.521; in series [6] it was 0.625.

As to “AAGUUUGCUAAUCGUUGCAAG [Fam3.1 aminoacylation ribozyme variant]”, the self-aminoacylation is 1.13 in series [1]; 0.834 in series [2]; 0.824 in series [3]; 0.881 in series [4]; 0.77 in series [5]; 0.987 in series [6].

Turning to “AAGUUUGCUAAUGGUCGGAAG [Fam3.1 aminoacylation ribozyme variant]”, the self-aminoacylation in series [1] was determined as 1.55; in series [2], 0.861; in series [3], 0.811; in series [4], 0.91; in series [5], 0.849; in series [6], 0.587.

On to “AAGUUUGCUAAUUGGCGCAAG [Fam3.1 aminoacylation ribozyme variant]”, for which the self-aminoacylation in series [1] came out at 2.62; in series [2], 0.829; in series [3], 0.964; in series [4] it was 0.935; in series [5], 1.1; in series [6] it was 0.714.

Turning to “AAGUUUGCUAAUUGUCCCAAG [Fam3.1 aminoacylation ribozyme variant]”, the self-aminoacylation in series [1] came out at 2.16; in series [2] it was 1.28; in series [3], 1.15; in series [4] it was 1.21; in series [5], 0.999; in series [6], 1.01.

As to “AAGUUUGCUACUACUCGCAAG [Fam3.1 aminoacylation ribozyme variant]”, the self-aminoacylation in series [1] was found to be 0.639; in series [2], 0.565; in series [3] it was 0.647; in series [4], 0.855; in series [5], 0.791; in series [6] it was 0.621.

Consider “AAGUUUGCUACUAGCCGCAAG [Fam3.1 aminoacylation ribozyme variant]”, for which the self-aminoacylation was found to be 1.27 in series [1]; 0.746 in series [2]; 0.786 in series [3]; 0.638 in series [4]; 0.51 in series [5]; 0.996 in series [6].

In the case of “AAGUUUGCUACUAGUCGCAAC [Fam3.1 aminoacylation ribozyme variant]”, the self-aminoacylation in series [1] worked out at 0.697; in series [2] it was 0.737; in series [3], 0.845; in series [4], 0.874; in series [5] it was 0.763; in series [6] it was 0.917.

Take “AAGUUUGCUACUAGUCGCCAG [Fam3.1 aminoacylation ribozyme variant]”: the self-aminoacylation was 0.986 in series [1]; 1.27 in series [2]; 1.26 in series [3]; 1.1 in series [4]; 0.749 in series [5]; 1.91 in series [6].

For “AAGUUUGCUACUAGUCUCAAG [Fam3.1 aminoacylation ribozyme variant]”, the self-aminoacylation stood at 1.11 in series [1]; 0.827 in series [2]; 0.914 in series [3]; 0.818 in series [4]; 0.77 in series [5]; 0.988 in series [6].

Consider “AAGUUUGCUAGGAGUCGCAAG [Fam3.1 aminoacylation ribozyme variant]”, for which the self-aminoacylation was found to be 0.649 in series [1]; 0.788 in series [2]; 0.673 in series [3]; 0.745 in series [4]; 0.459 in series [5]; 1.02 in series [6].

Take “AAGUUUGCUAGUACUCGCAAG [Fam3.1 aminoacylation ribozyme variant]”: the self-aminoacylation stood at 0.836 in series [1]; 0.894 in series [2]; 0.907 in series [3]; 0.878 in series [4]; 0.773 in series [5]; 0.574 in series [6].

With “AAGUUUGCUAGUAGCCGCAAG [Fam3.1 aminoacylation ribozyme variant]”, the self-aminoacylation was found to be 1.34 in series [1]; 1.16 in series [2]; 0.787 in series [3]; 0.797 in series [4]; 1.09 in series [5]; 0.972 in series [6].

Regarding “AAGUUUGCUAGUAGUCGCAUG [Fam3.1 aminoacylation ribozyme variant]”, the self-aminoacylation came to 0.822 in series [1]; 0.903 in series [2]; 0.737 in series [3]; 0.873 in series [4]; 0.808 in series [5]; 1.4 in series [6].

With “AAGUUUGCUAGUAGUCGCGAG [Fam3.1 aminoacylation ribozyme variant]”, the self-aminoacylation was 3.65 in series [1]; 1.27 in series [2]; 1.08 in series [3]; 1.54 in series [4]; 1.25 in series [5]; 2.01 in series [6].
